B1: Spt20 (natural protein, S. cerevisiae, UniProt P50875 1-604, looked up)
chain: MSANSPTGNDPHVFGIPVNATPSNMGSPGSPVNVPPPMNPAVANVNHPVMRTNSNSNANEGTRTLTREQIQQLQQRQRLLLQQRLLEQQRKQQALQNYEAQFYQMLMTLNKRPKRLYNFVEDADSILKKYEQYLHSFEFHIYENNYKICAPANSRLQQQQKQPELTSDGLILTKNNETLKEFLEYVARGRIPDAIMEVLRDCNIQFYEGNLILQVYDHTNTVDVTPKENKPNLNSSSSPSNNNSTQDNSKIQQPSEPNSGVANTGANTANKKASFKRPRVYRTLLKPNDLTTYYDMMSYADNARFSDSIYQQFESEILTLTKRNLSLSVPLNPYEHRDMLEETAFSEPHWDSEKKSFIHEHRAESTREGTKGVVGHIEERDEFPQHSSNYEQLMLIMNERTTTITNSTFAVSLTKNAMEIASSSSNGVRGASSSTSNSASNTRNNSLANGNQVALAAAAAAAAVGSTMGNDNNQFSRLKFIEQWRINKEKRKQQALSANINPTPFNARISMTAPLTPQQQLLQRQQQALEQQQNGGAMKNANKRSGNNATSNNNNNNNNLDKPKVKRPRKNAKKSESGTPAPKKKRMTKKKQSASSTPSSTTMS
notes: Spt20, S. cerevisiae, SAGA subunit (SPT module); source: endogenous, in the native SAGA complex purified from fermented S. cerevisiae cells
B2: Ada1 (natural protein, S. cerevisiae, UniProt Q12060 1-488, looked up)
chain: MSAIQSPAPKPLQPTYPAASPASTNAYMKPGLIGSPAVSNHTEPNNGNNETAEPQGPNQRIDLGAMIEELTSLLGKESWTKYAQIISLFILGKLSRKELSNELELVFSPSAASLEKSNTNHHHSLVRLHNQLLLGIFANSLRENPLGRNGNESSWGFGNGSNNPNNKLKRINKHNSQIEVYKKIVMSLPLNDRNRLKMITKEAGKRGFIFCSVFQARLNNIPKIPIVTNPESLKRVKSNNLKTPLEWSQDIMNGFNVPLASESHSLPDTDSFYLRMVGIAREHGLVGTVDARCVELISLALDQYLKNIIEFTIDTVRYRRKKYSDYYDLNESGLYKSVSEMAADKRDAKIKQLDDDKNEDECADEAKSINNGNNSSKDDIGDISMSSITKAGEAVNEELHENRTISLTNEDIYDSLSIFPNLVEPSGSYYALTNLGLVNDDELVDMKSNIDDLPDFLNEKPTFTPLDERNVGTRHELNWLIKGILTED
notes: Ada1, S. cerevisiae, SAGA subunit (SPT module); source: endogenous, in the native SAGA complex purified from fermented S. cerevisiae cells
B3: Taf12 (natural protein, S. cerevisiae, UniProt Q03761 1-539, looked up)
chain: MSSNPENSGVNANNNTGTGNADAITGAQQNMVLQPRQLQEMAAKFRTLLTEARNVGETTPRGKELMFQAAKIKQVYDALTLNRRRQQAAQAYNNTSNSNSSNPASIPTENVPNSSQQQQQQQQQTRNNSNKFSNMIKQVLTPEENQEYEKLWQNFQVRHTSIKEKETYLKQNIDRLEQEINKQTDEGPKQQLQEKKIELLNDWKVLKIEYTKLFNNYQNSKKTFYVECARHNPALHKFLQESTQQQRVQQQRVQQQQQQQQQQQQQQQQQQQQQQQRQGQNQRKISSSNSTEIPSVTGPDALKSQQQQQNTITATNNPRGNVNTSQTEQSKAKVTNVNATASMLNNISSSKSAIFKQTEPAIPISENISTKTPAPVAYRSNRPTITGGSAMNASALNTPATTKLPPYEMDTQRVMSKRKLRELVKTVGIDEGDGETVIDGDVEELLLDLADDFVTNVTAFSCRLAKHRKSDNLEARDIQLHLERNWNIRIPGYSADEIRSTRKWNPSQNYNQKLQSITSDKVAAAKNNGNNVASLNTKK
notes: Taf12, S. cerevisiae, SAGA subunit (TAF module); source: endogenous, in the native SAGA complex purified from fermented S. cerevisiae cells
B4: Spt3 (natural protein, S. cerevisiae, UniProt P06844 1-337, looked up)
chain: MMDKHKYRVEIQQMMFVSGEINDPPVETTSLIEDIVRGQVIEILLQSNKTAHLRGSRSILPEDVIFLIRHDKAKVNRLRTYLSWKDLRKNAKDQDASAGVASGTGNPGAGGEDDLKKAGGGEKDEKDGGNMMKVKKSQIKLPWELQFMFNEHPLENNDDNDDMDEDEREANIVTLKRLKMADDRTRNMTKEEYVHWSDCRQASFTFRKNKRFKDWSGISQLTEGKPHDDVIDILGFLTFEIVCSLTETALKIKQREQVLQTQKDKSQQSSQDNTNFEFASSTLHRKKRLFDGPENVINPLKPRHIEEAWRVLQTIDMRHRALTNFKGGRLSSKPIIM
notes: Spt3, S. cerevisiae, SAGA subunit (SPT module); source: endogenous, in the native SAGA complex purified from fermented S. cerevisiae cells
B5: Taf9 (natural protein, S. cerevisiae, UniProt Q05027 1-157, looked up)
chain: MNGGGKNVLNKNSVGSVSEVGPDSTQEETPRDVRLLHLLLASQSIHQYEDQVPLQLMDFAHRYTQGVLKDALVYNDYAGSGNSAGSGLGVEDIRLAIAARTQYQFKPTAPKELMLQLAAERNKKALPQVMGTWGVRLPPEKYCLTAKEWDLEDPKSM
notes: Taf9, S. cerevisiae, SAGA subunit (TAF module); source: endogenous, in the native SAGA complex purified from fermented S. cerevisiae cells
B6: Taf5 (natural protein, S. cerevisiae, UniProt P38129 1-798, looked up)
chain: MSQKQSTNQNQNGTHQPQPVKNQRTNNAAGANSGQQPQQQSQGQSQQQGRSNGPFSASDLNRIVLEYLNKKGYHRTEAMLRAESGRTLTPQNKQSPANTKTGKFPEQSSIPPNPGKTAKPISNPTNLSSKRDAEGGIVSSGRLEGLNAPENYIRAYSMLKNWVDSSLEIYKPELSYIMYPIFIYLFLNLVAKNPVYARRFFDRFSPDFKDFHGSEINRLFSVNSIDHIKENEVASAFQSHKYRITMSKTTLNLLLYFLNENESIGGSLIISVINQHLDPNIVESVTAREKLADGIKVLSDSENGNGKQNLEMNSVPVKLGPFPKDEEFVKEIETELKIKDDQEKQLNQQTAGDNYSGANNRTLLQEYKAMNNEKFKDNTGDDDKDKIKDKIAKDEEKKESELKVDGEKKDSNLSSPARDILPLPPKTALDLKLEIQKVKESRDAIKLDNLQLALPSVCMYTFQNTNKDMSCLDFSDDCRIAAAGFQDSYIKIWSLDGSSLNNPNIALNNNDKDEDPTCKTLVGHSGTVYSTSFSPDNKYLLSGSEDKTVRLWSMDTHTALVSYKGHNHPVWDVSFSPLGHYFATASHDQTARLWSCDHIYPLRIFAGHLNDVDCVSFHPNGCYVFTGSSDKTCRMWDVSTGDSVRLFLGHTAPVISIAVCPDGRWLSTGSEDGIINVWDIGTGKRLKQMRGHGKNAIYSLSYSKEGNVLISGGADHTVRVWDLKKATTEPSAEPDEPFIGYLGDVTASINQDIKEYGRRRTVIPTSDLVASFYTKKTPVFKVKFSRSNLALAGGAFRP
notes: Taf5, S. cerevisiae, SAGA subunit (TAF module); source: endogenous, in the native SAGA complex purified from fermented S. cerevisiae cells

We go through 6 molecules from paper PMC6502868, “Architecture of Saccharomyces cerevisiae SAGA complex” (Cell Discovery, 2019).

One test deals with T1, Tra1 (S. cerevisiae, UniProt P38811 1-3744).
T1 construct: Tra1, S. cerevisiae, largest SAGA subunit (SPT module), 3744 residues as printed; Endogenous subunit; Purification methods and any tag are in the Supplementary Materials; also called Tra1_(SAGA); lobe A; source: endogenous, in the native SAGA complex purified from fermented S. cerevisiae cells
T1 sequence (P38811 whole entry): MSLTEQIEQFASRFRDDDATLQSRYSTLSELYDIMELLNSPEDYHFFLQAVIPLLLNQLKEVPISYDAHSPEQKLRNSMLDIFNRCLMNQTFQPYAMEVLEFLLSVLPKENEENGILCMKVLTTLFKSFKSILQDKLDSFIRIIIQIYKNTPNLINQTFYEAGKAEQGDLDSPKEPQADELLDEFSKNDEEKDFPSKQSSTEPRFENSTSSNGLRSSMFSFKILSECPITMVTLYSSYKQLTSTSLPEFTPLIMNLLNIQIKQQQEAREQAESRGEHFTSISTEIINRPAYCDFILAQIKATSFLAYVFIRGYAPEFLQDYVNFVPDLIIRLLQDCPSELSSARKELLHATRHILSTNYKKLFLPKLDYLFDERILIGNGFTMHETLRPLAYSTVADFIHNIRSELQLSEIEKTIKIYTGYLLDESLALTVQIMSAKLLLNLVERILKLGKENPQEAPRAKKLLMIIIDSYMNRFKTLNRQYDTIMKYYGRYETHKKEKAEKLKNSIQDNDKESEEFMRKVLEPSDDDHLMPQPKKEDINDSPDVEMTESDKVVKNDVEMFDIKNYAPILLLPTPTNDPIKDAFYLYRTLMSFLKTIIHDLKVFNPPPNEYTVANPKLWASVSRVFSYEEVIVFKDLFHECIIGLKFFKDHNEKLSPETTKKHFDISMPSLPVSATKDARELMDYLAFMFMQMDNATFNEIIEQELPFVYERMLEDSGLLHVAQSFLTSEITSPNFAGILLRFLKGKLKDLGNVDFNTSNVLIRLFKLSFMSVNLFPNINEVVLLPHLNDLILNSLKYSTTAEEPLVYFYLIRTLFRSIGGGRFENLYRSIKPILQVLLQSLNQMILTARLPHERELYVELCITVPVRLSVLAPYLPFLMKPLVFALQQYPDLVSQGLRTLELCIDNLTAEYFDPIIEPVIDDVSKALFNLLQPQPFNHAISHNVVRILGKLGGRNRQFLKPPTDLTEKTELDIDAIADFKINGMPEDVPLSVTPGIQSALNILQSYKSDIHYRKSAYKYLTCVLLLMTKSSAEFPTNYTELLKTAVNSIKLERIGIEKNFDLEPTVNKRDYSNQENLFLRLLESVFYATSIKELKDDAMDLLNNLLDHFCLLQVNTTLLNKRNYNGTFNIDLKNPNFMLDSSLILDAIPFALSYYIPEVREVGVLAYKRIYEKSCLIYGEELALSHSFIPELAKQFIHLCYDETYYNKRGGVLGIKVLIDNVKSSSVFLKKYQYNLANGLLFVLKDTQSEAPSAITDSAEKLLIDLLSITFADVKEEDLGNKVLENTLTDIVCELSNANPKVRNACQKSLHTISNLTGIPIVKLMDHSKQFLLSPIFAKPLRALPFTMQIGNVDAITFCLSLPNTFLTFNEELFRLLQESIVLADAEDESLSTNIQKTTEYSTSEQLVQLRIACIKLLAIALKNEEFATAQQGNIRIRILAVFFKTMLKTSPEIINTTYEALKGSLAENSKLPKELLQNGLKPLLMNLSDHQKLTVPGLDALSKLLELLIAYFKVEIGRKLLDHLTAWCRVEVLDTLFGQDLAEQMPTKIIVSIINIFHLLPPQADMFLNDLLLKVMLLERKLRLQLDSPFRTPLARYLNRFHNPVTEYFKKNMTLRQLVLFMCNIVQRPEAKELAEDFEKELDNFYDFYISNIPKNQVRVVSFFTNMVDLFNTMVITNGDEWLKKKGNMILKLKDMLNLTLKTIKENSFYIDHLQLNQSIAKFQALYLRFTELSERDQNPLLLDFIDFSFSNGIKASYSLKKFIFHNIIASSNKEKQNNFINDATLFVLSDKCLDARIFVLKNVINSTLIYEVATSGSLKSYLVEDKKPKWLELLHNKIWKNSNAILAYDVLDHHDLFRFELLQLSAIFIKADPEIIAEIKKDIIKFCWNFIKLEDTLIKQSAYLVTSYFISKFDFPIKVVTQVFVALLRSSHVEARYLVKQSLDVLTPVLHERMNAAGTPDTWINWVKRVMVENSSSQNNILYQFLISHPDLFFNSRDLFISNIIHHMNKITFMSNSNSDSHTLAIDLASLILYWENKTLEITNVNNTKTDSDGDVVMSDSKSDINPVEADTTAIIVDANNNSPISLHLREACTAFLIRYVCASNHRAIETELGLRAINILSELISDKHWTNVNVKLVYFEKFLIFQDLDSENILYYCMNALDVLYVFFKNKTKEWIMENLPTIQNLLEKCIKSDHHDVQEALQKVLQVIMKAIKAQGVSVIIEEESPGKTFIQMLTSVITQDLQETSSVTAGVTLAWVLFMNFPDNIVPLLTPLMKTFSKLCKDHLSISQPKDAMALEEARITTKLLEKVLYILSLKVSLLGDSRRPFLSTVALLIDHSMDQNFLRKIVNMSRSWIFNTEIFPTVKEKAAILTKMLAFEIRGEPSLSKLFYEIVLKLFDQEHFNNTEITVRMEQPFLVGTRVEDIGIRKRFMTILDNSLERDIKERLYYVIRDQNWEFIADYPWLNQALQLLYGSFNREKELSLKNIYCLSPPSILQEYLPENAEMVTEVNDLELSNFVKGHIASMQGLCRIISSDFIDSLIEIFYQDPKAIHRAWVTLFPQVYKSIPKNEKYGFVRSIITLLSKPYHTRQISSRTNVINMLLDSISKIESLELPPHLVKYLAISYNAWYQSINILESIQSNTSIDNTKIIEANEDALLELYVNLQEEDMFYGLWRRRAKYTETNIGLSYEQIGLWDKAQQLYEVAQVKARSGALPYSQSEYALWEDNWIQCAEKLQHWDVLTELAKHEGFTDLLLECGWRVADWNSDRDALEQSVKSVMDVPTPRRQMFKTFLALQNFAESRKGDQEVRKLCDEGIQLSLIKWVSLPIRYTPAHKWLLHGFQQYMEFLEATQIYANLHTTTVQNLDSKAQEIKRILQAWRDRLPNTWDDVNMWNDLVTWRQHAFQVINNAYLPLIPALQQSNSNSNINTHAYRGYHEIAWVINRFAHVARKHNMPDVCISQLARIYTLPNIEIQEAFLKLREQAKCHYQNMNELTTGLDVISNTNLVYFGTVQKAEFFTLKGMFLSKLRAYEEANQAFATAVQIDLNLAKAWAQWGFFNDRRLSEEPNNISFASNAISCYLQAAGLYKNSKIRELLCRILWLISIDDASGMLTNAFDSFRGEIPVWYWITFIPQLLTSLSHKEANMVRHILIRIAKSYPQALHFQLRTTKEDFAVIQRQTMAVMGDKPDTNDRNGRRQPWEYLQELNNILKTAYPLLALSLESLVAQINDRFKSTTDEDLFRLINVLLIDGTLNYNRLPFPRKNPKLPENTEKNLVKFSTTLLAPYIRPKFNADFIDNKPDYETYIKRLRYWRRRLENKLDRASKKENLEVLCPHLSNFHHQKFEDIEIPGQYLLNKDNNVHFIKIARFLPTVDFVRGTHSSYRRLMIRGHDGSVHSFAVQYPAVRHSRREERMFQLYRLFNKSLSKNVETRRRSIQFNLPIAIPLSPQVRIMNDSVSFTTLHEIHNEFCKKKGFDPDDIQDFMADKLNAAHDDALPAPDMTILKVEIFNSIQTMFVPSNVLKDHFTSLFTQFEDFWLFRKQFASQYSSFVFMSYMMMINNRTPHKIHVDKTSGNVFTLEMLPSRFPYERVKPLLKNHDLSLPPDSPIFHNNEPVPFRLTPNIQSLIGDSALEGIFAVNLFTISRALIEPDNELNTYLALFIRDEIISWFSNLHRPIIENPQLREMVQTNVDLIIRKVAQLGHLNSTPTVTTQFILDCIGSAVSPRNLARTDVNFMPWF
Nature of the test: cross-linking; chemical cross-linking of proteins coupled with mass spectrometry (CXMS) on the purified native SAGA complex; 139 unique inter- and 184 unique intra-subunit cross-linking pairs. Particulars: both partners purified.
Consider B1, for which the binding result is “binds”. As to B2, the binding result is listed as “binds”. Regarding B3, the binding result is reported as “binds”. On to B4, for which the binding result is reported as “binds”. On the same count and under the same terms, next, B5: “binds”.

A further test addresses T2, Spt7 (S. cerevisiae, UniProt P35177 1-1332).
T2 construct: Spt7, S. cerevisiae, second largest SAGA subunit (SPT module); source: endogenous, in the native SAGA complex purified from fermented S. cerevisiae cells
T2 sequence (looked up): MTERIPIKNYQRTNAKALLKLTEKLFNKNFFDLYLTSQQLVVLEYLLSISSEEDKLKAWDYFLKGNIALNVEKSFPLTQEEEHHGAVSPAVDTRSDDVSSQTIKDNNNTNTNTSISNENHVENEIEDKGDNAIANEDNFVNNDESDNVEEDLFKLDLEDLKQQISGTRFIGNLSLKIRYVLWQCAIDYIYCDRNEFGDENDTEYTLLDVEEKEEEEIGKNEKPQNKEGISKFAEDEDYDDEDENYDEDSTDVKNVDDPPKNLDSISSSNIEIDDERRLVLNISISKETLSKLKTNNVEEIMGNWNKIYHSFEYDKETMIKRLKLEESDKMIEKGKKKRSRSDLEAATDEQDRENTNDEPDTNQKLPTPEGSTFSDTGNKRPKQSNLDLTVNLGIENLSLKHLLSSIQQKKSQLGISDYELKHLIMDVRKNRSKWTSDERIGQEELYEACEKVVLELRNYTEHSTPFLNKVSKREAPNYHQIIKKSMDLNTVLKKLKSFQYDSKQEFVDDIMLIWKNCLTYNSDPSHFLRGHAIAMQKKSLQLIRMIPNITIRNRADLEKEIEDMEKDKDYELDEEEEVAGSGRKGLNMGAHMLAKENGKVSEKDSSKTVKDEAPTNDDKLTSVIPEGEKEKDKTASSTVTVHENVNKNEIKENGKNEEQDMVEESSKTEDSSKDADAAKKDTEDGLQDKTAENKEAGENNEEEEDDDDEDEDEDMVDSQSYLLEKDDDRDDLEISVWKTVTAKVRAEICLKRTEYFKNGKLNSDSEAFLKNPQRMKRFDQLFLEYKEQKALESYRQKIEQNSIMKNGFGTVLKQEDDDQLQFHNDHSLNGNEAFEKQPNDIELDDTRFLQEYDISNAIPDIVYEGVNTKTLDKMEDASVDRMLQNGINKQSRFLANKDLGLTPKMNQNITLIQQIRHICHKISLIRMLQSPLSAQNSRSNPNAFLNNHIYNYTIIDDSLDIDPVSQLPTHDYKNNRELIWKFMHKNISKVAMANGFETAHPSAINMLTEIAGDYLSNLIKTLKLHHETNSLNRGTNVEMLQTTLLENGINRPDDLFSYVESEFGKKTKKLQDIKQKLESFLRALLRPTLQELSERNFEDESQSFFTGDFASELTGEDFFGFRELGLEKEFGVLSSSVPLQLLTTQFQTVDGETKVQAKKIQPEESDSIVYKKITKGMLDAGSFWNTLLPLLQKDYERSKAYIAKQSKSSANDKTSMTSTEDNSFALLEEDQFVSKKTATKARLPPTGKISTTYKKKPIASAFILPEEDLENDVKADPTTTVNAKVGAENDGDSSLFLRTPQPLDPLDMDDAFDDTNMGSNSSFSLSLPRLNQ
The description is as above. Particulars: both partners purified.
Consider B6, for which the binding result is “binds”.

For the molecule B3, the binding result was “binds”. On the same count and under the same terms, next, B4: “binds”.
